The source of these data is US20090263375A1 (WISCONSIN ALUMNI RESEARCH FOUNDATION, published 2009).

T1: endogenous Star-PAP (human, UniProt Q9H6E5 1-874)
T1 sequence: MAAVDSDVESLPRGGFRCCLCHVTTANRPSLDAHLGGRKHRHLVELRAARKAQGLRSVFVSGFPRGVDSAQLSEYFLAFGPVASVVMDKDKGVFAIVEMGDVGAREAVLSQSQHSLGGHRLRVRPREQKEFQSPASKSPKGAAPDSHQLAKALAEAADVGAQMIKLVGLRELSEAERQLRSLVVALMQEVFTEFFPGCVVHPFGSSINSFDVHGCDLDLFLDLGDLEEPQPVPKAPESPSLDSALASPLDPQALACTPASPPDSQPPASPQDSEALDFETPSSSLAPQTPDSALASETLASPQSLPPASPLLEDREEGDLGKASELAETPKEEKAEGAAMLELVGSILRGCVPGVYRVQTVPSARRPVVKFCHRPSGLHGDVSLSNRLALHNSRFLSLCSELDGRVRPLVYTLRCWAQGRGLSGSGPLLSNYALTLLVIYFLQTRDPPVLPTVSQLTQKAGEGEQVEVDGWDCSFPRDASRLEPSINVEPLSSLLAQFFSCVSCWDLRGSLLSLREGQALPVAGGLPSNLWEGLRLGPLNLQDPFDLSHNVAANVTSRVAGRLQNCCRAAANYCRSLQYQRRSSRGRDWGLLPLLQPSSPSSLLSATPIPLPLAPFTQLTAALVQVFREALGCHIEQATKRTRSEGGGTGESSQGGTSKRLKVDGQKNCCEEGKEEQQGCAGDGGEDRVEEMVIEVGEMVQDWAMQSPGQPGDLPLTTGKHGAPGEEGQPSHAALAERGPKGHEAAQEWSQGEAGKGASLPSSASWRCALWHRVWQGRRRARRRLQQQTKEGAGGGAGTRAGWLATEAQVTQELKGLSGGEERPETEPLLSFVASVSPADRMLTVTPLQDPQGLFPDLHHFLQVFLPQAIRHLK

T2: Flag-Star-PAP (full length) (human, UniProt Q9H6E5 1-874)
T2 construct: Expressed in HEK 293 cells and purified on anti-FLAG M2 resin together with its associated complex; also called Flag tagged Star-PAP; full-length Star-PAP; not shown: FLAG tag
T2 sequence: T1 sequence

T3: Symplekin (human, UniProt Q92797 1-1274)
T3 sequence (looked up): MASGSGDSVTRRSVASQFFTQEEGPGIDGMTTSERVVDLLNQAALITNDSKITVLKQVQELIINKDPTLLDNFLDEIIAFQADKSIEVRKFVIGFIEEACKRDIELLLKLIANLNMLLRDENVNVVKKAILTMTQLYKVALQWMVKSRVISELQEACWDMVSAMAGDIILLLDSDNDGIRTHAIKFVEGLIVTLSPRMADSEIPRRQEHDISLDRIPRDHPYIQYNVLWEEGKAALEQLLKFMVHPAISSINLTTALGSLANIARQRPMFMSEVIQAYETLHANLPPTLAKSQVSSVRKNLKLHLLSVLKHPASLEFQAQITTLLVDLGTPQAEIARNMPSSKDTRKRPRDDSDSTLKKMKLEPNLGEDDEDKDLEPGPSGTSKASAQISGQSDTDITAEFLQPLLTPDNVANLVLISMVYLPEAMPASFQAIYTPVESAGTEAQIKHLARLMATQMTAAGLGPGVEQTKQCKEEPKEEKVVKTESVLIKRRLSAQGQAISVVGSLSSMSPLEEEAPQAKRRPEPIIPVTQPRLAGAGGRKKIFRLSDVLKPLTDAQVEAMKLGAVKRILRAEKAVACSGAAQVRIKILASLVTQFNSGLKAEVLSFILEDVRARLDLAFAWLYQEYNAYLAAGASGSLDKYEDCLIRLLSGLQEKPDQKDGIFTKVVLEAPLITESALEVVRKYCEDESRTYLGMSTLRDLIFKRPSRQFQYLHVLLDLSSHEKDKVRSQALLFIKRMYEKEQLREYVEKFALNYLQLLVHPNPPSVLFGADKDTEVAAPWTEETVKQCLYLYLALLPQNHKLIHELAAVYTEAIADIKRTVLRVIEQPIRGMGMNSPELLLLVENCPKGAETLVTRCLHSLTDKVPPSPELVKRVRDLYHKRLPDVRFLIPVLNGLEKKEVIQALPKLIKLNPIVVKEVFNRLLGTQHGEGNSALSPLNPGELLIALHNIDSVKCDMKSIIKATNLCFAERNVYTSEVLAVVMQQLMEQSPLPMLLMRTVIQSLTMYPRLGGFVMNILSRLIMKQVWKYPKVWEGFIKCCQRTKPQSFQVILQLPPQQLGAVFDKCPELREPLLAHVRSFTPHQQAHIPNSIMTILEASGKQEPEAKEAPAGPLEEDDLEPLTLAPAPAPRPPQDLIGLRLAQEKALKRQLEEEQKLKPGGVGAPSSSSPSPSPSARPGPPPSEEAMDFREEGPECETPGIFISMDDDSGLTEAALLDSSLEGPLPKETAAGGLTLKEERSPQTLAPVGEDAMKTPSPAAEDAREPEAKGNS

T4: CPSF-100 (Cleavage and Polyadenylation Specificity Factor subunit 100) (human, UniProt Q9P2I0 1-782)
T4 construct: also called SPSF-100
T4 sequence (looked up): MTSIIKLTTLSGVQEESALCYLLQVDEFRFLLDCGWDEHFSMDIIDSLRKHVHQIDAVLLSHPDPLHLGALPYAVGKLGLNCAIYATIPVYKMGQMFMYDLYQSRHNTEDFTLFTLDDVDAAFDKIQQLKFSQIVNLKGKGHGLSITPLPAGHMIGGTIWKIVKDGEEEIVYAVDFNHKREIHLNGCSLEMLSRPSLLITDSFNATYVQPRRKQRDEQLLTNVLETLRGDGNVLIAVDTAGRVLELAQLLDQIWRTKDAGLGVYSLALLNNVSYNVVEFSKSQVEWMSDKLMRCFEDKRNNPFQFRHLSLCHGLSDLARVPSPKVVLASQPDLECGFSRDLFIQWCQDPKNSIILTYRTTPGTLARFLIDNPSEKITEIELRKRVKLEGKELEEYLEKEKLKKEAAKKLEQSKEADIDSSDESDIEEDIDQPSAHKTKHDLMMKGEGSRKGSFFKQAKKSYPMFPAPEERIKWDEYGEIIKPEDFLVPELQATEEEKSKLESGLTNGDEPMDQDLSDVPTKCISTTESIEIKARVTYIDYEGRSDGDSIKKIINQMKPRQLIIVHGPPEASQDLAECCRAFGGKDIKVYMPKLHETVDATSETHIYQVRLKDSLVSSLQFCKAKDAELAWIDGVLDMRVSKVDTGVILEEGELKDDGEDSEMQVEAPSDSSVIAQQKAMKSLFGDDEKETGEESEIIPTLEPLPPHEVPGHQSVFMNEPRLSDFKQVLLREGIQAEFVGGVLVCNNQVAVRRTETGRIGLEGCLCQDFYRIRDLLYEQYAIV

B1: PIPKIα (endogenous) (enzyme, human, UniProt Q99755 1-562, looked up)
chain: MASASSGPSSSVGFSSFDPAVPSCTLSSAASGIKRPMASEVLEARQDSYISLVPYASGMPIKKIGHRSVDSSGETTYKKTTSSALKGAIQLGITHTVGSLSTKPERDVLMQDFYVVESIFFPSEGSNLTPAHHYNDFRFKTYAPVAFRYFRELFGIRPDDYLYSLCSEPLIELCSSGASGSLFYVSSDDEFIIKTVQHKEAEFLQKLLPGYYMNLNQNPRTLLPKFYGLYCVQAGGKNIRIVVMNNLLPRSVKMHIKYDLKGSTYKRRASQKEREKPLPTFKDLDFLQDIPDGLFLDADMYNALCKTLQRDCLVLQSFKIMDYSLLMSIHNIDHAQREPLSSETQYSVDTRRPAPQKALYSTAMESIQGEARRGGTMETDDHMGGIPARNSKGERLLLYIGIIDILQSYRFVKKLEHSWKALVHDGDTVSVHRPGFYAERFQRFMCNTVFKKIPLKPSPSKKFRSGSSFSRRAGSSGNSCITYQPSVSGEHKAQVTTKAEVEPGVHLGRPDVLPQTPPLEEISEGSPIPDPSFSPLVGETLQMLTTSTTLEKLEVAESEFTH
notes: Detected by western blot in immunoprecipitates and FLAG-purified complexes; also called type I phosphatidylinositol phosphate kinase alpha; PIP kinase
B2: Casein Kinase Iα (CKIα), endogenous (enzyme, human, UniProt P48729 2-337, looked up)
chain: ASSSGSKAEFIVGGKYKLVRKIGSGSFGDIYLAINITNGEEVAVKLESQKARHPQLLYESKLYKILQGGVGIPHIRWYGQEKDYNVLVMDLLGPSLEDLFNFCSRRFTMKTVLMLADQMISRIEYVHTKNFIHRDIKPDNFLMGIGRHCNKLFLIDFGLAKKYRDNRTRQHIPYREDKNLTGTARYASINAHLGIEQSRRDDMESLGYVLMYFNRTSLPWQGLKAATKKQKYEKISEKKMSTPVEVLCKGFPAEFAMYLNYCRGLRFEEAPDYMYLRQLFRILFRTLNHQYDYTFDWTMLKQKAAQQAASSSGQGQQAQTPTGKQTDKTKSNMKGF
notes: Detected with a CKIα specific antibody; also called CIKIα
B3: Flag-PAPα (canonical poly(A) polymerase) (enzyme)
chain: MPFPVTTQGSQQTQPPQKHYGITSPISLAAPKETDCVLTQKLIETLKPFGVFEEEEELQRRILILGKLNNLVKEWIREISESKNLPQSVIENVGGKIFTFGSYRLGVHTKGADIDALCVAPRHVDRSDFFTSFYDKLKLQEEVKDLRAVEEAFVPVIKLCFDGIEIDILFARLALQTIPEDLDLRDDSLLKNLDIRCIRSLNGCRVTDEILHLVPNIDNFRLTLRAIKLWAKRHNIYSNILGFLGGVSWAMLVARTCQLYPNAIASTLVHKFFLVFSKWEWPNPVLLKQPEECNLNLPVWDPRVNPSDRYHLMPIITPAYPQQNSTYNVSVSTRMVMVEEFKQGLAITDEILLSKAEWSKLFEAPNFFQKYKHYIVLLASAPTEKQRLEWVGLVESKIRILVGSLEKNEFITLAHVNPQSFPAPKENPDKEEFRTMWVIGLVFKKTENSENLSVDLTYDIQSFTDTVYRQAINSKMFEVDMKIAAMHVKRKQLHQLLPNHVLQKKKKHSTEGVKLTALNDSSLDLSMDSDNSMSVPSPTSATKTSPLNSSGSSQGRNSPAPAVTAASVTNIQATEVSVPQVNSSESSGGTSSESIPQTATQPAISPPPKPTVSRVVSSTRLVNPPPRSSGNAATSGNAATKIPTPIVGVKRTSSPHKEESPKKTKTEEDETSEDANCLALSGHDKTEAKEQLDTETSTTQSETIQTAASLLASQKTSSTDLSDIPALPANPIPVIKNSIKLRLNR
notes: not shown: FLAG tag

The target in one test is T1, endogenous Star-PAP. The test can be described thus: co-immunoprecipitation with antibodies against full-length Star-PAP, western blot.
Test [1] concerns the target T2, Flag-Star-PAP (full length). Kind of test: FLAG affinity purification from HEK 293 cells, western blot. How it is done:
(§1) Affinity purification of Flag-Star-PAP and Flag-PAPα and their associated complex of proteins in parallel allowed a comparison of the complexes formed by Star-PAP and PAPα in more detail. Flag tagged Star-PAP and PAPα were purified from HEK 293 cells stably expressing Flag-Star-PAP or Flag-PAPα (following manufacturer's instructions; Sigma-Aldrich) and the presence of endogenous symplekin, CPSF¹⁰⁰, CPSF⁷³, CstF⁶⁴, RNA Pol II, Sm protein (Y12) and PIPKIα was assessed by western blotting. Like Flag-PAPα, Flag-Star-PAP associates with symplekin, CPSF¹⁰⁰ and CPSF⁷³, further confirmation that Star-PAP may function in an mRNA polyadenylation complex (FIG. 7). Also detected with both PAPs was a faster migrating form of RNA Pol II and Sm protein (Y-12), a component of the spliceosome, which is consistent with reports that the machinery for splicing and polyadenylation are coupled.

For test [2], the target named is B3. The description is as above. On the procedure: as §1
In test [3] the target is B3. Kind of test: FLAG affinity purification from HEK 293 cells, immunoblot with a CKIα specific antibody. How it is done: (A) FLAG purified Star-PAP and PAPα complexes were separated by SDS-PAGE, transferred to nitrocellulose and probed with anti-FLAG and -CKIα antibodies. (B) Endogeneous Star-PAP was immunoprecipitated from HEK 293 cells. The resulting precipitates were immunoblotted with Star-PAP and CKIα specific antibodies. A non-specific IgG immunoprecipitation was used as a control. (C) Purified FLAG-Star-PAP complex was incubated with 0, 0.1, 1.0, or 100 μM IC261 (IC₅₀ 11 μM). (D) Purified FLAG-Star-PAP complex was incubated with […] (IC₅₀˜6.0 μM) prior to initiation of the kinase reaction by ATP. Arrow indicates Star-PAP protein.
Casein Kinase Iα (CKIα), is a protein kinase found in nuclear speckles; moreover, CKIα activity is inhibited by PI4,5P₂. […] FLAG proteins were expressed and purified as follows. Human Star-PAP and rat CKIα cDNAs were cloned in to the pFLAG-1 mammalian expression vector (Sigma). For each FLAG purification, four 10 cm dishes each containing ˜5×10^6 HEK 293 cells were transfected with 10 μg DNA and allowed to express for 48 hours. FLAG purifications were performed according to the manufacturer's directions.
For orientation: Immunoblotting shows a protein as a band on a membrane.

The target of the next test is T3, Symplekin. The test can be described thus: FLAG affinity purification from HEK 293 cells, western blot. On the procedure:
as §1

The target in test [4] is T4, CPSF-100 (Cleavage and Polyadenylation …). The test is described as above. On the procedure:
as §1

B1: the binding result with endogenous Star-PAP is “binds”; in test [1], “binds”; in test [2] it was “no binding”.

Consider B2, for which, in test [3], the binding result is given as “no binding”.

With B3, the binding result (in the test with Symplekin; in test [4]) was “binds” in each case.
